Values of other authors, collected in PMC4853784.

Target: V1b receptor (Homo sapiens) (UniProt P47901)
Assay: radioligand

Sequence of UniProt P47901 (P47901 whole entry): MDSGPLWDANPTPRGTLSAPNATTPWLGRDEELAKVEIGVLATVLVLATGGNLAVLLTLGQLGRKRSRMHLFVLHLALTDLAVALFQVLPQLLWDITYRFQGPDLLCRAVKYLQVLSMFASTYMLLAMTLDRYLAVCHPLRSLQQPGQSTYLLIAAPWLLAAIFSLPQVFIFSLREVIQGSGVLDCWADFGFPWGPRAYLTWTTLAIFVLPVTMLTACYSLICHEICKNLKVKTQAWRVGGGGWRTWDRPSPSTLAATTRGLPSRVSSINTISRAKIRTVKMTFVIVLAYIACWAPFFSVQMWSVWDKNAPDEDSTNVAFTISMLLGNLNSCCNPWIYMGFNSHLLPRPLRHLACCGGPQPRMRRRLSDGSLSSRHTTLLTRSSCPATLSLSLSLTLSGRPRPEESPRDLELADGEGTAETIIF

Kd: 1.8 nM
Substance: vasopressin (from UniProt P01185)
